This note sets out measurements from article PMC4092090, “Investigation of a MMP-2 Activity-Dependent Anchoring Probe for Nuclear Imaging of Cancer” (PLoS ONE, 2014).

Data set [1] deals with HT1080 tumor bearing mice. Further details: species or system mouse (Balb/c nu-nu). The following applies: mouse, in vivo, iv. How it is done:
Female Balb/c nu-nu mice (5 weeks old, Japan SLC, Inc., Shizuoka, Japan) were housed under a 12-h light/12-h dark cycle and given free access to food and water. HT1080 cells (5×10^6 cells/100 μl PBS (-)/mouse) were subcutaneously inoculated into the right hind leg of Balb/c nu-nu mice. Animals were used for experiments two weeks after inoculation when the mean tumor size was 5.7±2.2 mm along the major axis. […]3000 and […] (37 kBq, 100 μl in PBS including 3% bovine serum albumin and 0.1% Tween 80) were injected intravenously into the tail vein of tumor bearing mice. The mice were sacrificed at various post-injection time points (n = 3 for each time point), and the organs of interest including the tumor tissues were collected for determination of the weights. The radioactivity of each sample was measured with a NaI well-type scintillation counter. From fitting to the two phase decay curves for blood radioactivity data analyzed by GraphPad Prism 6 (GraphPad Software, San Diego, CA), whole body pharmacokinetic parameters such as blood half-lives, distribution volume, mean residence time and total clearance were calculated for each of the probes and the values compared. Simple pharmacokinetic analysis using a single tissue compartment model was applied to the biodistribution data to calculate rate constants (K1 and k2) for radioactivity transfer from blood to tumor and clearance from tumor to blood by PMOD version 3.2. In addition, MDAP3000 (7.4 MBq in 200 μl) was injected intravenously into the tail vein of tumor bearing mice for metabolite analysis in tumors excised 3, 6, and 24 hr post injection (n = 2 each). Tumor homogenates were prepared on ice and insoluble material was removed by centrifugation after methanol treatment. The resulting supernatant was analyzed by RP-HPLC.

Data set [2] is classed as physicochemical. The following applies: pH 7.4. As for the experimental part:
The experimental determination of probe partition coefficients (log P values) was performed in 1-octanol and 0.02 M phosphate buffer pH 7.4 where the two phases were pre-saturated with each other. 1-Octanol (200 µl) and phosphate buffer (200 µl) were pipetted into LoBind Eppendorf tubes containing 0.37 MBq of probes. The tube was vortexed for 10 seconds, and centrifuged (5 min, 4000×g). Aliquots (50 µl) from the 1-octanol and buffer phases were transferred into two test tubes for radioactivity counting with a NaI well-type scintillation counter (1470 WIZARD, Perkin Elmer, Kanagawa, Japan). The partition coefficient was calculated using the equation P = (counts/µl in 1-octanol)/(counts/µl in buffer).

For data set [3], the system named is HT1080 tumor bearing mice. Further details: species or system mouse (Balb/c nu-nu). The following applies: mouse, in vivo, iv. How it is done:
(§1) […]3000 and […] (37 kBq, 100 μl in PBS including 3% bovine serum albumin and 0.1% Tween 80) were injected intravenously into the tail vein of tumor bearing mice. The mice were sacrificed at various post-injection time points (n = 3 for each time point), and the organs of interest including the tumor tissues were collected for determination of the weights. The radioactivity of each sample was measured with a NaI well-type scintillation counter. From fitting to the two phase decay curves for blood radioactivity data analyzed by GraphPad Prism 6 (GraphPad Software, San Diego, CA), whole body pharmacokinetic parameters such as blood half-lives, distribution volume, mean residence time and total clearance were calculated for each of the probes and the values compared. Simple pharmacokinetic analysis using a single tissue compartment model was applied to the biodistribution data to calculate rate constants (K1 and k2) for radioactivity transfer from blood to tumor and clearance from tumor to blood by PMOD version 3.2. In addition, MDAP3000 (7.4 MBq in 200 μl) was injected intravenously into the tail vein of tumor bearing mice for metabolite analysis in tumors excised 3, 6, and 24 hr post injection (n = 2 each). Tumor homogenates were prepared on ice and insoluble material was removed by centrifugation after methanol treatment. The resulting supernatant was analyzed by RP-HPLC.
This is another data set of the same source.

The subject of a further data set is HT1080 tumor xenograft. On the set-up: species or system mouse (Balb/c nu-nu). The following applies: mouse, in vivo, iv. How it is done: as §1
Data set [4] has as its system HT1080 human fibrosarcoma cells. Description: Cellular uptake study. The following applies: 5×10^5 HT1080 cells, FBS-free DMEM, 37 kBq probe, 30 min incubation, radioactivity counting, Fig. 3a. Format: cell-based. As for the experimental part: HT1080 human fibrosarcoma cells were purchased from American Type Culture Collection (ATCC, Manassas, VA USA) and cultured in DMEM with low glucose (Invitrogen), 10% fetal bovine serum (FBS), and penicillin/streptomycin. MMP-2 cDNA was cloned into the pENTR vector (Invitrogen) and inserted into the pLenti6 vector (Invitrogen) as previously described, [7]. […] Protein quantitation was performed by BCA protein assay (Thermo Fisher Scientific, Inc. Rockford, IL USA). The cellular uptake study of MDAP3000 pretreated with activated MMP-2 (63 nM) in the presence or absence of GM6001 (100 µM) was performed as described above.

The target of data set [5] is T1, Human-recombinant MMP-2 protein (Homo sapiens, UniProt P08253).
T1 construct: purchased R & D Systems, Inc. 902-MP-010
T1 sequence (P08253 110-660): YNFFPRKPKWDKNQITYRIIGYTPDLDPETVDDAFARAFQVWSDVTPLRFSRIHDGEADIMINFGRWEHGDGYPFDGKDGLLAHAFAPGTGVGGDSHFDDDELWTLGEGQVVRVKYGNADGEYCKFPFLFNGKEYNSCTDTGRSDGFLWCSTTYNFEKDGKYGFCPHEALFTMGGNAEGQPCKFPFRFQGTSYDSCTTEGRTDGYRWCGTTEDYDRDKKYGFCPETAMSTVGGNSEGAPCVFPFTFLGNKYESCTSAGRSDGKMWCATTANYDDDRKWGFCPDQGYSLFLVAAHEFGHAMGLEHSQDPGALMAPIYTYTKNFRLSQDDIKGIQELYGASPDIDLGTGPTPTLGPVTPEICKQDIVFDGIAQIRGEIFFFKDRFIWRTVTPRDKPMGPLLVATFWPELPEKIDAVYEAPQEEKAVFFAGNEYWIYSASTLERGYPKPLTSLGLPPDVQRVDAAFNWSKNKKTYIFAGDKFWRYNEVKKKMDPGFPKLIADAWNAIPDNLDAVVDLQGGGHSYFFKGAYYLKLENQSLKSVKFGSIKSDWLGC
In words: Cleavage assay. Type of data set: biochemical. The following applies: activated MMP-2 1–5 nM, 370 kBq probe, 37°C, 2 hr, pH 7.5 assay buffer, RP-HPLC, Fig. 3b. As for the experimental part: Human-recombinant MMP-2 protein (902-MP-010, R & D Systems, Inc., Minneapolis, MN USA) was activated with p-aminophenylmercuric acetate (1 mM) in assay buffer (50 mM Tris-HCl, 150 mM NaCl, 10 mM CaCl2, 5 µM ZnCl2, 0.02% Brij 35, pH 7.5). MDAP1000, MDAP3000, and MDAP5000 (370 kBq) were incubated at 37°C for 2 hr with activated MMP-2 (1–5 nM) and a MMP inhibitor (0 or 100 µM, GM6001, Merck KGaA, Darmstadt, Germany). The reaction was quenched by addition of methanol, and the percentage of cleaved peptide was estimated by RP-HPLC.

Entries after “also recorded” stand apart in the source; their conditions may differ.

Take “Palmitoyl-Dap(p-SCN-Bn-DTPA-^111In)-10-Adc-Gly-Pro-Leu-Gly-OH [MDAPCV]”: in data set [1], the “Blood clearance (in words)” value is listed as “slow blood clearance” and the “T/B ratios over the experimental period” value is “less than 0.3”. In addition, the “log P (partition coefficient)” value in data set [2] is 0.29±0.07. In addition, in data set [3], the “Blood half-life, Fast” value turned out to be 4.17 h; the “Clearance (total clearance)” value was 0.0025 mL/min; the Distribution volume stood at 2.16 mL; the Mean residence time was 860 min. The “K1, rate constant for transfer from blood to tumor, Mean” value in the data set on HT1080 tumor xenograft stood at 0.0022 mL/g/min. The “Cellular accumulation (radioactivity in tumor cells)” value in data set [4] is reported as “high accumulation group”.
For the substance “Palmitoyl-Dap(p-SCN-Bn-DTPA-^111In)-10-Adc-Gly-Pro-Leu-Gly-Val-Arg-Gly-Lys(ivDde)-PEG5000 [MDAP5000]”, in data set [2], the “log P (partition coefficient)” value is reported as −1.04±0.16. Moreover, in data set [4], the “Cellular accumulation (radioactivity in tumor cells)” value is given as “significantly lower radioactivity”. Further, in data set [5], the “Cleavage by MMP-2” value is recorded as “concentration-dependent manner; also recorded: rather low”.
